Measurements from patent publication US20190127480A1 (Regeneron, published 2019).
Changes are numbered by the printed parent chain. Values belong to the binder of their own block, whether it stands above or below them.

Key:
[1] = biological target: T1, human CD3 expressed on cells (Jurkat cells, a CD3+ human T-cell line; human PBMC T cells) (human, UniProt P07766 23-207; P04234 22-171); assay: FACS on Jurkat cells
T1 construct: Cell-surface CD3 within the T cell receptor complex
Method: FACS data was acquired using the following protocol: Cells at 2×10⁵ per well were incubated with serially diluted antibodies for 30 min on ice. Post incubation, cells were washed and secondary antibody was added and incubated for an additional 30 minutes. After incubation, cells were washed, re-suspended in cold PBS containing 1% BSA and analyzed by flow cytometry with viable Jurkat cells gated by side and forward scatters. The EC₅₀s for cell binding titration were determined using Prism software with values calculated using a 4-parameter non-linear regression analysis.

[2] = biological target: T1, human CD3 expressed on cells (Jurkat …); assay: cell-based or functional assay
[3] = biological target: T2, Soluble heterodimeric CD3 protein (hCD3-epsilon/hCD3-delta) with either a human Fc tag (hFcΔAdp/hFc) or a … (human, UniProt P07766 23-126; P04234 22-105); assay: SPR Biacore 25C antigen-capture
T2 construct: also called hCD3ε/δ; not shown: Fc tag: human (hFcΔAdp/hFc)
T2 sequence (P07766 23-126 limits assumed, stated change not applied, chain 1 of 2): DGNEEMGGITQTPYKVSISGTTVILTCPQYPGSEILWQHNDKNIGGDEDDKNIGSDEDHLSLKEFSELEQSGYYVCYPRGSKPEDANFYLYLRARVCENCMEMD
T2 sequence (P04234 22-105 limits assumed, stated change not applied, chain 2 of 2): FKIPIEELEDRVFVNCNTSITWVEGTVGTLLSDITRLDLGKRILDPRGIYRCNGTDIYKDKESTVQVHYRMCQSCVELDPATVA
Method in brief: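 Rate constants fitted to a 1:1 model, giving KD as kd/ka and dissociative half-life as ln2/(60·kd) minutes. Antibodies flowed over CD3ε/δ heterodimer captured on anti-human or anti-mouse Fc surfaces, run on a Biacore T200 at 25 °C.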

T1 sequence (P07766 23-207 limits assumed, chain 1 of 2): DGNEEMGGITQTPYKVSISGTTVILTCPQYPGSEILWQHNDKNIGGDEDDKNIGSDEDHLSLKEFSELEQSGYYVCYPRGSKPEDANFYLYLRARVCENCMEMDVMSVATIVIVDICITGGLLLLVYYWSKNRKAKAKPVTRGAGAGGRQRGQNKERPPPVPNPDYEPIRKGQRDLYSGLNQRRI
T1 sequence (P04234 22-171 limits assumed, chain 2 of 2): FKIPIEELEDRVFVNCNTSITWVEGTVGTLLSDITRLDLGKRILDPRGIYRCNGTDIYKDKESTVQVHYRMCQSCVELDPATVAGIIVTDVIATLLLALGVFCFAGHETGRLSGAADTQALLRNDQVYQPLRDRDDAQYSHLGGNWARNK

- EC50 [1]: 5.99 nM
- EC50 [M] hPBMC Proliferation [2]: 1.42e-10 M
- Kd [3]: 0.238 nM
- T½ [3]: 1170 min
- koff [3]: 9.9e-06 s⁻¹
- kon [3]: 41900 M⁻¹ s⁻¹
B3: H1M2692N (antibody, mouse IgG1, V domains shown)
VH: EVQLVESGGGLVQPGGSLRLSCAASGFSFDDYTMHWVRQPPGKGLEWVSGISWNSGSIGYADSVKGRFTISRDNAKNSLYLQMNSLRAGDTALYYCAKDNSGYGYYYYYGMDVWGQGTTVTVSS
VL: EIVMTQSPATLSVSPGERATLSCRASQSVSSNLAWYQQKPGQAPRLLIYGASTRATGIPARFSGSGSGTEFTLTISSLQSEDFAVYYCQQYYNWPLTFGGGTKVEIK
notes: H1M: mouse IgG1 Fc, human variable regions; divalent

- EC50 [1]: 1.16 nM
- EC50 [M] hPBMC Proliferation [2]: 6.48e-10 M
- Kd [3]: 0.151 nM
- T½ [3]: 48 min
- koff [3]: 0.00024 s⁻¹
- kon [3]: 1.59e+06 M⁻¹ s⁻¹
B6: H2M2711N (antibody, V domains shown)
VH: QVQLVESGGGVVQPGRSLRLSCAASGFTFRSFGMHWVRQAPGRGLEWVAMIYFDGKNKYYADSVRGRFTISRDNSKNTLYLEMSSLRAEDTAVYFCARGPGYNWLDPWGQGTLVTVSS
VL: B3 VL with S31R, I58V, Y86F, Y87H, Y92N, W94R, K103E
notes: H2M: mouse IgG2 Fc, human variable regions; divalent

- EC50 [1]: 0.71 nM
- EC50 [M] hPBMC Proliferation [2]: 2.11e-10 M
- Kd [3]: 0.153 nM
- T½ [3]: 48 min
- koff [3]: 0.000243 s⁻¹
- kon [3]: 1.59e+06 M⁻¹ s⁻¹
B7: H2M2710N (antibody, V domains shown)
VH: B6 VH
VL: B3 VL with S31R, I58V, Y86F, Y87H, Y92N, W94R, K103E
notes: as for B6

- EC50 [1]: 1.32 nM
- EC50 [M] hPBMC Proliferation [2]: 1.09e-09 M
- Kd [3]: 0.138 nM
- T½ [3]: 53 min
- koff [3]: 0.000216 s⁻¹
- kon [3]: 1.56e+06 M⁻¹ s⁻¹
B8: H2M2775N (antibody, mouse IgG2, V domains shown)
VH: B6 VH
VL: B3 VL with A19V, T20I, V29I, S31R, S52T, I58V, Y86F, Y92N, W94R, K103E
notes: as for B6

- EC50 [1]: 2.37 nM
- EC50 [M] hPBMC Proliferation [2]: 3.86e-12 M
- Kd [3]: 0.544 nM
- T½ [3]: 38 min
- koff [3]: 0.000306 s⁻¹
- kon [3]: 563000 M⁻¹ s⁻¹
B10: H2M2706N (antibody, mouse IgG2, V domains shown)
VH: B6 VH with F32Y, G33A, R43K, I51V, F53Y, K56N, K58Q, E82Q, S84N, E89D
VL: B3 VL with S31R, E70D, Y92N, E105V
notes: as for B6

Continued, binder first:

B1: H2M2690N (antibody, mouse IgG2, V domains shown)
VH: EVQLVESGGGLVQPGRSLRLSCAASGFTFDDYTMHWVRQAPGKGLEWVSGISWNSGSIGYADSVKGRFTISRDNAKKSLYLQMNSLRAEDTALYYCAKDNSGYGHYYYGMDVWGQGTTVTVAS
VL: B3 VL with Q90H, Y92I
notes: as for B6
- EC50 [1]: 4.37 nM
- EC50 [M] hPBMC Proliferation [2]: 5.37e-12 M
- Kd [3]: 0.0799 nM
- T½ [3]: 1820 min
- koff [3]: 6.35e-06 s⁻¹
- kon [3]: 75100 M⁻¹ s⁻¹

B2: H2M2707N (antibody, mouse IgG2, V domains shown)
VH: B6 VH with A23I, F32Y, R43K, F53Y, K56N, E82Q, S84N, E89D
VL: B3 VL with Y92N, W94R
notes: as for B6
- EC50 [1]: 124 nM
- EC50 [M] hPBMC Proliferation [2]: 1.92e-12 M
- Kd [3]: 0.715 nM
- T½ [3]: 41 min
- koff [3]: 0.000285 s⁻¹
- kon [3]: 399000 M⁻¹ s⁻¹

B4: H2M2708N (antibody, mouse IgG2, V domains shown)
VH: B6 VH
VL: B3 VL with A19V, V29I, S31R, I58V, Y86F, Y87H, Y92N, W94R, K103E
notes: as for B6
- EC50 [1]: 0.658 nM
- EC50 [M] hPBMC Proliferation [2]: 2.69e-08 M
- Kd [3]: 0.131 nM
- T½ [3]: 51 min
- koff [3]: 0.000227 s⁻¹
- kon [3]: 1.73e+06 M⁻¹ s⁻¹

B5: H2M2691N (antibody, mouse IgG2, V domains shown)
VH: B1 VH
VL: B3 VL with Q90H, Y92I
notes: as for B6
- EC50 [1]: 6.77 nM
- EC50 [M] hPBMC Proliferation [2]: 3.43e-11 M
- Kd [3]: 0.254 nM
- T½ [3]: 1160 min
- koff [3]: 9.98e-06 s⁻¹
- kon [3]: 39400 M⁻¹ s⁻¹

B9: H2M2774N (antibody, mouse IgG2, V domains shown)
VH: B6 VH with A23V, F32Y, R43K, E46Q, F53Y, E82Q, S84N, V93M
VL: B3 VL with S28R, V29I, I58S, F83V, Y91H, Y92N
notes: as for B6
- EC50 [1]: 0.352 nM
- EC50 [M] hPBMC Proliferation [2]: 4.92e-10 M
- Kd [3]: 0.135 nM
- T½ [3]: 34 min
- koff [3]: 0.000336 s⁻¹
- kon [3]: 2.49e+06 M⁻¹ s⁻¹
